Assay results as given in patent publication US20160222124A1 (published 2016).
Where a chain is given by its changes, count along the chain named. One block for each binder: values may come before it.

Columns and labels:
human CD40 (cellular) [1] = target: T1, human CD40 (cellular) (human, UniProt P25942 21-277); experiment: flow cytometry; CD40-transfected HEK-293 cells
human CD40 (cellular) [2] = target: T1, human CD40 (cellular); experiment: flow cytometry; RAMOS cells; humanized per legend
Target sequence in this assay (P25942 21-277): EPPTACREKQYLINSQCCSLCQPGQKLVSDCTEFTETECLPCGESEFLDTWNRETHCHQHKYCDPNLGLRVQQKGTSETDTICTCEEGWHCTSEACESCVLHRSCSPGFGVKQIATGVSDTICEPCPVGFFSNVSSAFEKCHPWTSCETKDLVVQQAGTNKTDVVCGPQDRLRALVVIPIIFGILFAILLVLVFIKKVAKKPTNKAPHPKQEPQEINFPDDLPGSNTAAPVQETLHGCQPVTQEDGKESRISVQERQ

human CD40 (cellular) [3] = target: T1, human CD40 (cellular); experiment: flow cytometry; CD40-transfected HEK-293 cells; humanized 19B10
human CD40 (cellular) [4] = target: T1, human CD40 (cellular); experiment: flow cytometry; CD40-transfected HEK-293 cells; humanized 10F2
B cells Cynomolgus = target: T2, B cells Cynomolgus (cynomolgus monkey, UniProt G7PG38 21-278); experiment: flow cytometry, whole blood; cynomolgus B cells
T2 chain: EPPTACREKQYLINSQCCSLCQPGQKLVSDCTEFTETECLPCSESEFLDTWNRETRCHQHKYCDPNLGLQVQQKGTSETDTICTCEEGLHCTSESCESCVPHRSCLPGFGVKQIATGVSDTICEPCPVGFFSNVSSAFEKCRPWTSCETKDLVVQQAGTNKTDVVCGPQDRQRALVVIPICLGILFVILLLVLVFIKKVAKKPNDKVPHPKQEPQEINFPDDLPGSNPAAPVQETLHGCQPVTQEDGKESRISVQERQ

Platelets Human = Platelets Human (human, UniProt P25942 21-277); experiment: flow cytometry, whole blood; human platelets
Platelets Cynomolgus = target: T3, Platelets Cynomolgus (cynomolgus monkey, UniProt G7PG38 21-278); experiment: flow cytometry, whole blood; cynomolgus platelets
T3 chain: T2 chain

B cells Human = B cells Human (human, UniProt P25942 21-277); experiment: flow cytometry, whole blood; human B cells

EC50 (human CD40 (cellular) [1]): 1.9 nM
B1: Antibody C (antibody, V domains shown)
VH: QVQLVQSGAEVKKPGASVKVSCTASGFNIKDYYVHWVKQAPGQGLEWMGRIDPEDGDSKYAPKFQGKATMTADTSTSTVYMELSSLRSEDTAVYYCTTSYYVGTYGYWGQGTLVTVSS
VL: DIQMTQSPSSLSASVGDRVTITCSASSSVSYMLWFQQKPGKAPKLLIYSTSNLASGVPSRFSGSGSGTDFTLTISSLQPEDFATYYCQQRTFYPYTFGGGTKVEIKR

EC50 (human CD40 (cellular) [1]): 1.1 nM
B2: Antibody A (antibody, V domains shown)
VH: EVQLVESGGGLVKPGGSLRLSCAASGFTFSDYGMHWVRQAPGKGLEWVAYISSGNRIIYYADTVKGRFTISRDNAKNSLYLQMNSLRAEDTALYYCARQDGYRYAMDYWAQGTLVTVSS
VL: DIVMTQSPDSLAVSLGERATMSCKSSQSLLNSGNQKNYLTWHQQKPGQPPKLLIYWTSTRESGVPDRFSGSGSGTDFTLTISSLQAEDVAVYYCQNDYTYPLTFGGGTKVEIKR

EC50 (human CD40 (cellular) [2]): 1.22 nM
B3: 20E2 (antibody, V domains shown)
VH: B2 VH with L18R, R19K, G42E, S78T, Y80F, N84T, A88S, A110G, L114S
VL: DIVMTQSPSSLTVTAGEKVTMSCKSSQSLLNSGNQKNYLTWHQQKPGQPPKLLIYWTSTRESGVPDRFTGSGSGTDFTLTISNLQAEDLAVYYCQNDYTYPLTFGAGTKLELK

EC50 (human CD40 (cellular) [3]): 1.1 nM
EC50 (human CD40 (cellular) [2]): 0.36 nM
B4: 19B10 (antibody, V domains shown)
VH: EVQLQQSGAELVRPGASVQLSCTASGFNIKDYYVHWVKQRPEKGLEWIGRIDPEDGDTKFAPKFQGKATMTADTSSNTVYLHLSSLTSEDTAVYYCTTSYYVGTYGYWGQGTTLTVSS
VL: QIVLTQSPAIMSASPGEKVTITCSASSSVSYMLWFQQKPGTSPKLWIYSTSNLASGVPARFSGSGSGTSYSLTISRMEAEDAATYYCQQRTFYPYTFGGGTKLEIK

EC50 (human CD40 (cellular) [2]): 0.21 nM
EC50 (human CD40 (cellular) [4]): 1.9 nM
B5: 10F2 (antibody, V domains shown)
VH: B4 VH with Q19K, V34I, F60Y, A61D, V79A
VL: B4 VL with A9T, T20I, S26T, M32I, T68A

EC50 (human CD40 (cellular) [2]): 0.32 nM
B6: 2H11 (antibody, V domains shown)
VH: B4 VH with Q19K, T58S, F60Y, V79A
VL: B4 VL with S62G

EC50 (B cells Cynomolgus): 0.7 nM
EC50 (Platelets Human): 0.7 nM
EC50 (Platelets Cynomolgus): 1.2 nM
EC50 (B cells Human): 0.3 nM
B7: 4D11 (antibody, V domains shown)
VH: QLQLQESGPGLLKPSETLSLTCTVSGGSISSPGYYGGWIRQPPGKGLEWIGSIYKSGSTYHNPSLKSRVTISVDTSKNQFSLKLSSVTAADTAVYYCTRPVVRYFGWFDPWGQGTLVTVSS
VL: AIQLTQSPSSLSASVGDRVTITCRASQGISSALAWYQQKPGKAPKLLIYDASNLESGVPSRFSGSGSGTDFTLTISSLQPEDFATYYCQQFNSYPTFGQGTKVEIK
